By Kd is commonly meant the concentration at which binding is half-saturated. By EC50 (read off the curve) is commonly meant the concentration giving half of the maximal effect.

From patent US20210155711A1 come the findings set out here.

In assay [1] the target is recombinant human FcRn (transmembrane and cytoplasmic domains replaced with a poly-histidine tag) (human) (UniProt P55899). Put plainly: … bead competition: unlabelled test antibody against biotinylated human IgG1 CNT06234 for recombinant FcRn, pH 6.4.
Sequence of recombinant human FcRn (transmembrane and cytoplasmic domains replaced with a poly-histidine tag) (human) (P55899 other isoform, or with tags, fused parts or gaps, form in doubt): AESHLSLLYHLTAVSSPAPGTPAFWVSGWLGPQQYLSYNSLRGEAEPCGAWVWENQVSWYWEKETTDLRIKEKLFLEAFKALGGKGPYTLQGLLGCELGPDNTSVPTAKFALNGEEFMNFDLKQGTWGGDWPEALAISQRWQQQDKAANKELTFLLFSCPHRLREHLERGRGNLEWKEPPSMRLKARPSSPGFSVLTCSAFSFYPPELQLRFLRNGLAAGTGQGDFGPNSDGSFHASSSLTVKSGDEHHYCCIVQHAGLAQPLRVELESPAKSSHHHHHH
Assay [2] has as its target human FcγRIIa (recombinant, Example 1; allotype not stated) (human) (UniProt P12318). Put plainly: … bead competition: unlabelled test antibody against a biotinylated control antibody (human IgG1 CNT06234 by paragraph 15/paragraph 85; paragraph 86 says 'against IgG2') for recombinant FcgRIIa.
The target in assay [3] is human FcγRI (recombinant, polyhistidine-tagged) (human) (UniProt P12314). Put plainly: SPR (BIACORE 3000), His-tagged receptor captured on anti-His IgG, antibody injected; 1:1 steady state fit.
Sequence of human FcγRI (recombinant, polyhistidine-tagged) (human) (P12314 16-288 limits assumed): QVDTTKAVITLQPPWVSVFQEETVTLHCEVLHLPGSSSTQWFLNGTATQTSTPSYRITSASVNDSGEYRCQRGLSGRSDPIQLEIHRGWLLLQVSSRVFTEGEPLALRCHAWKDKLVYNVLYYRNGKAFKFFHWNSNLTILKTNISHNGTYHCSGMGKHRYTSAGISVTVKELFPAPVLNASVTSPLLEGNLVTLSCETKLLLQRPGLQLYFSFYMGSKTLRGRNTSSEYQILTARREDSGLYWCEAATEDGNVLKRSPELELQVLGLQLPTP
The target of assay [4] is human FcγRIIa (recombinant, Example 1; allotype not stated) (human) (UniProt P12318). Described as above.
Sequence of human FcγRIIa (recombinant, Example 1; allotype not stated) (human) (P12318 36-218 limits assumed): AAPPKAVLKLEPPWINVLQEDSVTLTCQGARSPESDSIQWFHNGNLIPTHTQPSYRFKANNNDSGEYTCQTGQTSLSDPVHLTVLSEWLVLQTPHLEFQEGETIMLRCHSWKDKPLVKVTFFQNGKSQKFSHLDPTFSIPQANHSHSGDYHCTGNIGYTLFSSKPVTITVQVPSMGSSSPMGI
Assay [5] concerns the target human FcγRIIIa (recombinant, Example 1) (human) (UniProt P08637). The description is as above.
The target in assay [6] is human FcγRI (recombinant, polyhistidine-tagged) (human) (UniProt P12314). Put plainly: SPR (BIACORE 3000), His-tagged receptor captured on anti-His IgG, antibody injected; 1:1 kinetic fit. For orientation: Surface plasmon resonance follows binding to a sensor surface in real time, without labels.
The target of assay [7] is human FcγRIIIa (recombinant, Example 1) (human) (UniProt P08637). The description is as above.
Sequence of human FcγRIIIa (recombinant, Example 1) (human) (P08637 17-208 F176V limits assumed): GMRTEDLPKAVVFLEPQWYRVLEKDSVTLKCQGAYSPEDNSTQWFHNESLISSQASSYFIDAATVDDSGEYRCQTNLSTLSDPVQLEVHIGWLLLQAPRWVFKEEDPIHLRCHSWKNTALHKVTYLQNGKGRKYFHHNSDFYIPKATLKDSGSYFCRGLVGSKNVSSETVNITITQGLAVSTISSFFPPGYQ
In assay [8] the target is human FcγRIIa (recombinant, Example 1; allotype not stated) (human) (UniProt P12318). The experiment in a line: … direct binding (avidity) assay: biotinylated test antibody and recombinant His-tagged FcgRIIa on donor and acceptor beads.

With “IgG2c4b (human IgG2 V234A, G237A, H268Q, V309L, A330S, P331S, anti-Her2/neu construct) (antibody)”, the IC50 (read off the curve) in assay [1] came to 60 µg/mL; in assay [2] it was 100 µg/mL. Also, the Kd is 38 µM in assay [3] and 170 µM in assay [4].

On to “IgG4 A/A (human IgG4 S228P, F234A, L235A, anti-Her2/neu construct) (antibody)”, for which the IC50 (read off the curve) in assay [1] was determined as 100 µg/mL. In addition, the Kd in assay [3] is 15 µM; in assay [5], 55 µM; in assay [4] it was 150 µM.

On to “IgG2c4e (human IgG2 P233S, V234A, G237A, P238S, H268A, V309L, A330S, P331S, anti-Her2/neu construct) (antibody)”, for which the IC50 (read off the curve) in assay [1] stood at 100 µg/mL.

As for “IgG2c4c (human IgG2 V234A, G237A, H268A, V309L, A330S, P331S, anti-Her2/neu construct) (antibody)”, the Kd in assay [6] is 0.044 µM; in assay [7] it was 0.64 µM; in assay [4], 19 µM. Further, the IC50 (read off the curve) in assay [2] stood at 60 µg/mL.

With “IgG2m4 (human IgG2 H268Q, V309L, A330S, P331S, anti-Her2/neu construct) (antibody)”, the IC50 (read off the curve) in assay [1] worked out at 80 µg/mL; in assay [2], 30 µg/mL. Moreover, the concentration for a half-maximal effect (EC50 (read off the curve)) in assay [8] was 0.2 µg/mL. The results for the Kd in assay [3], in assay [5] and in assay [4] were 210 µM, 95 µM and 2.7 µM, respectively.

Turning to “IgG1 Ag (human IgG1 N297A, aglycosylated, anti-Her2/neu construct) (antibody)”, the IC50 (read off the curve) in assay [1] was 100 µg/mL. In assay [3], the Kd was 3.7 µM.

Take “huIgG1 (wild type human IgG1 isotype antibody, anti-Her2/neu construct)”: the IC50 (read off the curve) in assay [1] amounted to 70 µg/mL; in assay [2], 6 µg/mL. Besides, the Kd in assay [6] is 0.013 µM; in assay [4] it was 1.7 µM. Also, the EC50 (read off the curve) in assay [8] stood at 0.1 µg/mL.

Regarding “huIgG2 (wild type human IgG2 isotype antibody, anti-Her2/neu construct)”, the IC50 (read off the curve) in assay [1] came out at 80 µg/mL; in assay [2] it was 50 µg/mL. The EC50 (read off the curve) in assay [8] came out at 0.2 µg/mL. For the same substance, the Kd came out at 120 µM in assay [3], 41 µM in assay [5] and 1 µM in assay [4].

On to “IgG2c4a (human IgG2 H268A, V309L, A330S, P331S, anti-Her2/neu construct) (antibody)”, for which the IC50 (read off the curve) came out at 60 µg/mL in assay [1] and 20 µg/mL in assay [2]. The Kd in assay [3] stood at 160 µM; in assay [5], 85 µM; in assay [4] it was 2.2 µM.
